Assay [1] concerns the target T1, Tat AcK50 peptide SYGR-AcK-KRRQRC (SEQ ID NO:50) (HIV-1).
T1 construct: Synthetic peptide
Put plainly: NMR 2D 1H-15N HSQC.

In assay [2] the target is p300/CBP-associated factor (P/CAF), HA-tagged (human, UniProt Q92831 1-832). The assay can be described thus: co-immunoprecipitation from cells with anti-FLAG (FLAG-Tat), western blot with anti-HA (HA-P/CAF). For orientation: Immunoblotting shows a protein as a band on a membrane.
Assay [3] addresses T2, N-terminal biotinylated and lysine-acetylated Tat peptide (Tat AcK50) (HIV-1).
T2 construct: also called biotinylated and wild type Tat peptide; Tat peptide containing AcK50
Put plainly: pull-down with the biotinylated Tat-K50ac peptide on streptavidin agarose, anti-GST Western blot.

The target in assay [4] is T2, N-terminal biotinylated and …. The assay can be described thus: pull-down with the N-terminal biotinylated, lysine-acetylated Tat peptide on streptavidin agarose, anti-GST western blot.

Numbering of substitutions follows the chain as printed. Names may count otherwise.

B1: bromodomain of P/CAF (residues 719-832 of SEQ ID NO:2) (other)
chain: SKEPRDPDQLYSTLKSILQQVKSHQSAWPFMEPVKRTEAPGYYEVIRFPMDLKTMSERLKNRYYVSKKLFMADLQRVFTNCKEYNAAESEYYKCANILEKFFFSKIKEAGLIDK
notes: also called P/CAF bromodomain; PCAF bromodomain
Take B1: the Kd in assay [1] was roughly 20 µM.

B2: HIV-1 Tat protein, wild type (other)
chain: MEPVDPRLEPWKHPGSQPKTASNNCYCKRCCLHCQVCFTKKGLGISYGRKKRRQRRRAPQDSKTHQVSLSKQPASQPRGDPTGPKESKKKVERETETDPED
notes: also called Tat-KK; wild type Tat
With B2, the binding result in assay [2] is given as “binds”.

B3: HIV-1 Tat double mutant K50R/K51R (other)
chain: B2 chain with K50R, K51R
notes: also called Tat-RR; Tat K50R/K51R mutant protein
B3: the binding result in assay [2] was “no binding”.

B4: TIF16 (624-812) (other)
chain: SATICRVCQKPGDLVMCNQCEFCFHLDCHLPALQDVPGEEWSCSLCHVLPDLKEEDGSLSLDGADSTGVVAKLSPANQRKCERVLLALFCHEPCRPLHQLATDSTFSLDQPGGTLDLTLIRARLQEKLSPPYSSPQEFAQDVGRMFKQFNKLTEDKADVQSIIGLQRFFETRMNEAFGDTKFSAVLVEP
notes: also called GST-fusion TIF1b bromodomain-containing construct, residues 624-812 (lane 6); the sheet prints 'TIF16'; not shown: GST tag and linker of the pGEX4T-3 vector
B4: in assay [3], the binding result was “no binding”.

B5: GST-fusion bromodomain from TIF1 (other)
chain: KLSPANQRKCERVLLALFCHEPCRPLHQLATDSTFSLDQPGGTLDLTLIRARLQEKLSPPYSSPQEFAQDVGRMFKQFNKLTEDKADVQSIIGLQRFFETRMNEAFGDTKFSAVLVEP
notes: domain: bromodomain; also called bromodomain of TIF1; TIF1b
On to B5, for which, in assay [4], the binding result was “no binding”.

B6: TIF16 (702-812) (other)
chain: RKCERVLLALFCHEPCRPLHQLATDSTFSLDQPGGTLDLTLIRARLQEKLSPPYSSPQEFAQDVGRMFKQFNKLTEDKADVQSIIGLQRFFETRMNEAFGDTKFSAVLVEP
notes: also called GST-fusion TIF1b bromodomain construct, residues 702-812 (lane 5); not shown: GST tag and linker of the pGEX4T-3 vector
As for B6, the binding result in assay [3] was “no binding”.

B7: CBP (1082-1317) (other)
chain: KKIFKPEELRQALMPTLEALYRQDPESLPFRQPVDPQLLGIPDYFDIVKNPMDLSTIKRKLDTGQYQEPWQYVDDVWLMFNNAWLYNRKTSRVYKFCSKLAEVFEQEIDPVMQSLGYCCGRKYEFSPQTLCCYGKQLCTIPRDAAYYSYQNRYHFCEKCFTEIQGENVTLGDDPSQPQTTISKDQFEKKKNDTLDPEPFVDCKECGRKMHQICVLHYDIIWPSGFVCDNCLKKTGR
notes: also called GST-fusion CBP bromodomain-containing construct, residues 1082-1317 (lane 4); not shown: GST tag and linker of the pGEX4T-3 vector
In the case of B7, the binding result in assay [3] was “no binding”.

What is called Kd is the concentration at which binding is half-saturated. A high value points to a looser complex.

For the origin of these results see patent US20120028912A1 (NEW YORK UNIVERSITY AND THE RESEARCH FOUNDATION OF THE …, published 2012).
